Series [1] deals with HeLa Kyoto. Briefly: melting temperature (median over replicates), in situ; higher = more thermally stable.
The subject of series [2] is HeLa Kyoto. The experiment in a line: solubility in G1/S (NP-40 vs SDS abundance) (log2 ratio); higher = more soluble. The following applies: cell cycle stage: G1/S.
The subject of series [3] is HeLa Kyoto. Briefly: thermal stability score vs G1/S (z-score of summed log2 fold changes over temperatures); higher = more thermally stable than in G1/S.
Series [4] concerns HeLa Kyoto. The experiment in a line: solubility change mitosis vs G1/S (difference of NP-40 vs SDS log2 ratios) (log2 ratio difference); higher = more soluble in mitosis.
[5] abbreviates: cell cycle stage: early G1 (4.5 h after nocodazole release).
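Throughout, for melting temperature (median over replicates), in situ: HeLa Kyoto cells synchronized by double thymidine or nocodazole block, proteins quantified by TMT10plex mass spectrometry, three independent biological replicates.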
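Throughout, for solubility change mitosis vs G1/S (difference of NP-40 vs SDS log2 ratios): synchronized HeLa Kyoto cells (double thymidine block for G1/S, nocodazole release for mitosis), protein amounts in NP-40 versus SDS lysates quantified by mass spectrometry, three biological replicates.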
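Throughout, for solubility in G1/S (NP-40 vs SDS abundance): HeLa Kyoto cells arrested at G1/S by double thymidine block, proteins quantified by TMT10plex mass spectrometry in mild NP-40 versus SDS extracts, three biological replicates.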
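Throughout, for thermal stability score vs G1/S (z-score of summed log2 fold changes over temperatures): synchronized HeLa Kyoto cells, proteins quantified by TMT10plex mass spectrometry, three biological replicates, mitosis taken 0.5 h after nocodazole release, G1/S directly after double thymidine block.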

Turning to “MSRRRHSDENDGGQPHKRRKTSDANETEDHLESLICKVGEKSACSLESNLEGLAGVLEADLPNYKSKILRLLCTVARLLPEKLTIYTTLVGLLNARNYNFGGEFVEAMIRQLKESLKANNYNEAVYLVRFLSDLVNCHVIAAPSMVAMFENFVSVTQEEDVPQVRRDWYVYAFLSSLPWVGKELYEKKDAEMDRIFANTESYLKRRQKTHVPMLQVWTADKPHPQEEYLDCLWAQIQKLKKDRWQERHILRPYLAFDSILCEALQHNLPPFTPPPHTEDSVYPMPRVIFRMFDYTDDPEGPVMPGSHSVERFVIEENLHCIIKSHWKERKTCAAQLVSYPGKNKIPLNYHIVEVIFAELFQLPAPPHIDVMYTTLLIELCKLQPGSLPQVLAQATEMLYMRLDTMNTTCVDRFINWFSHHLSNFQFRWSWEDWSDCLSQDPESPKPKFVREVLEKCMRLSYHQRILDIVPPTFSALCPANPTCIYKYGDESSNSLPGHSVALCLAVAFKSKATNDEIFSILKDVPNPNQDDDDDEGFSFNPLKIEVFVQTLLHLAAKSFSHSFSALAKFHEVFKTLAESDEGKLHVLRVMFEVWRNHPQMIAVLVDKMIRTQIVDCAAVANWIFSSELSRDFTRLFVWEILHSTIRKMNKHVLKIQKELEEAKEKLARQHKRRSDDDDRSSDRKDGVLEEQIERLQEKVESAQSEQKNLFLVIFQRFIMILTEHLVRCETDGTSVLTPWYKNCIERLQQIFLQHHQIIQQYMVTLENLLFTAELDPHILAVFQQFCALQA [NCBP1]”, the melting temperature in series [1] (cell cycle stage: G1/S) is 50 °C; in series [1] (cell cycle stage: mitosis) it was 50.4 °C. In series [2], the “solubility in G1/S (log2)” value is -0.297. Also, the thermal stability score in series [3] (setting [5]) turned out to be 0.234; in series [3] (cell cycle stage: mitosis) it was 0.31. The “solubility change mitosis (log2)” value in series [4] was -0.144.

For the sequence “MSRYLRPPNTSLFVRNVADDTRSEDLRREFGRYGPIVDVYVPLDFYTRRPRGFAYVQFEDVRDAEDALHNLDRKWICGRQIEIQFAQGDRKTPNQMKAKEGRNVYSSSRYDDYDRYRRSRSRSYERRRSRSRSFDYNYRRSYSPRNSRPTGRPRRSRSHSDNDRFKHRNRSFSRSKSNSRSRSKSQPKKEMKAKSRSRSASHTKTRGTSKTDSKTHYKSGSRYEKESRKKEPPRSKSQSRSQSRSRSKSRSRSWTSPKSSGH [SRSF10]”, the melting temperature in series [1] (cell cycle stage: G1/S) was determined as 49.7 °C; in series [1] (cell cycle stage: mitosis), 50.2 °C. In addition, the “solubility in G1/S (log2)” value in series [2] is -0.696. The thermal stability score was 0.817 in series [3] (setting [5]) and -0.653 in series [3] (cell cycle stage: mitosis). In series [4], the “solubility change mitosis (log2)” value was 0.534.

As to “MSSAPRSPTPRPRRMKKDESFLGKLGGTLARKRRAREVSDLQEEGKNAINSPMSPALVDVHPEDTQLEENEERTMIDPTSKEDPKFKELVKVLLDWINDVLVEERIIVKQLEEDLYDGQVLQKLLEKLAGCKLNVAEVTQSEIGQKQKLQTVLEAVHDLLRPRGWALRWSVDSIHGKNLVAILHLLVSLAMHFRAPIRLPEHVTVQVVVVRKREGLLHSSHISEELTTTTEMMMGRFERDAFDTLFDHAPDKLSVVKKSLITFVNKHLNKLNLEVTELETQFADGVYLVLLMGLLEDYFVPLHHFYLTPESFDQKVHNVSFAFELMLDGGLKKPKARPEDVVNLDLKSTLRVLYNLFTKYKNVE [PARVB]”, in series [1] (cell cycle stage: mitosis), the melting temperature is 50.4 °C. For the same sequence, the “solubility in G1/S (log2)” value in series [2] came to 0.0443. Moreover, the thermal stability score in series [3] (setting [5]) worked out at 0.418; in series [3] (cell cycle stage: mitosis) it was 0.496. Also, the “solubility change mitosis (log2)” value in series [4] was -0.137.

Turning to “MSSIGTGYDLSASTFSPDGRVFQVEYAMKAVENSSTAIGIRCKDGVVFGVEKLVLSKLYEEGSNKRLFNVDRHVGMAVAGLLADARSLADIAREEASNFRSNFGYNIPLKHLADRVAMYVHAYTLYSAVRPFGCSFMLGSYSVNDGAQLYMIDPSGVSYGYWGCAIGKARQAAKTEIEKLQMKEMTCRDIVKEVAKIIYIVHDEVKDKAFELELSWVGELTNGRHEIVPKDIREEAEKYAKESLKEEDESDDDNM [PSMA3]”, the melting temperature in series [1] (cell cycle stage: G1/S) came out at 60.7 °C; in series [1] (cell cycle stage: mitosis), 56.7 °C. In series [2], the “solubility in G1/S (log2)” value stood at 0.204. Also, the thermal stability score was -2.57 in series [3] (setting [5]) and -3.19 in series [3] (cell cycle stage: mitosis). Moreover, the “solubility change mitosis (log2)” value in series [4] is -0.0697.

As to “MSSLHKSRIADFQDVLKEPSIALEKLRELSFSGIPCEGGLRCLCWKILLNYLPLERASWTSILAKQRELYAQFLREMIIQPGIAKANMGVSREDVTFEDHPLNPNPDSRWNTYFKDNEVLLQIDKDVRRLCPDISFFQRATDYPCLLILDPQNEFETLRKRVEQTTLKSQTVARNRSGVTNMSSPHKNSVPSSLNEYEVLPNGCEAHWEVVERILFIYAKLNPGIAYVQGMNEIVGPLYYTFATDPNSEWKEHAEADTFFCFTNLMAEIRDNFIKSLDDSQCGITYKMEKVYSTLKDKDVELYLKLQEQNIKPQFFAFRWLTLLLSQEFLLPDVIRIWDSLFADDNRFDFLLLVCCAMLMLIREQLLEGDFTVNMRLLQDYPITDVCQILQKAKELQDSK [TBC1D13]”, the melting temperature was found to be 53.2 °C in series [1] (cell cycle stage: G1/S) and 54.1 °C in series [1] (cell cycle stage: mitosis). Besides, the “solubility in G1/S (log2)” value in series [2] was 0.0698. Also, the results for the thermal stability score in series [3] (setting [5]) and in series [3] (cell cycle stage: mitosis) were -0.565 and 0.385, respectively. The “solubility change mitosis (log2)” value in series [4] was -0.145.
